Sequences and labels used below:
B1: IgG with feline IgG1a Fc variant S428L, I377Y (antibody)
heavy: DVQLVESGGDLVKPGGSLRLTCVASGLSLTSDSMSWVRQAPGKGLQWVSTLWSNRGTYYTDSVKGRFTISKDNAENTLYLQMNNLKTEDTATYYCASIYYYEADYLHWYFDFWGQGALVTVSSASTTAPSVFPLAPSCGTTSGATVALACLVLGYFPEPVTVSWNSGALTSGVHTFPAVLQASGLYSLSSMVTVPSSRWLSDTFTCNVAHPPSNTKVDKTVRKTDHPPGPKPCDCPKCPPPEAAGGPSIFIFPPKPKDTLSISRTPEVTCLVVDLGPDDSDVQITWFVDNTQVYTAKTSPREEQFNSTYRVVSVLPILHQDWLKGKEFKCKVNSKSLPSPIERTISKAKGQPHEPQVYVLPPAQEELSRNKVSVTCLIKSFHPPDYAVEWEITGQPEPENNYRTTPPQLDSDGTYFVYSKLSVDRSHWQRGNTYTCSVLHEALHSHHTQKSLTQSPG
light: EIQMTQSPTSLSASVGDRVTITCRASEGIANNLSWYQQTPGKAPKLLIYATSNLHSGVPSRFSGSGSGTDFTLTISSLQPEDFATYYCQQGFKWPLTFGGGTKLEITRSDAQPSVFLFQPSLDELHTGSASIVCILNDFYPKEVNVKWKVDGVVQNKGIQESTTEQNSKDSTYSLSSTLTMSSTEYQSHEKFSCEVTHKSLASTLVKSFNRSECQRE
notes: Printed '1377Y' read as I377Y; IgG1a constant domain with MALA mutations (M234A, L244A as printed); variable domains from WO 2023/97275; also called S428L, 1377Y
B2: IgG with feline IgG1a Fc variant S428L, R301L (antibody)
heavy: B1 heavy with R310L, Y386I
light: B1 light
notes: IgG1a constant domain with MALA mutations (M234A, L244A as printed); variable domains from WO 2023/97275
B3: IgG with feline IgG1a Fc variant S428L, R301V (antibody)
heavy: B1 heavy with R310V, Y386I
light: B1 light
notes: as for B2
B4: IgG with feline IgG1a Fc variant S428M, Q311V (antibody)
heavy: B1 heavy with Q320V, Y386I, L439M
light: B1 light
notes: as for B2
B5: IgG with feline IgG1a Fc variant S428L, T286D (antibody)
heavy: B1 heavy with T295D, Y386I
light: B1 light
notes: as for B2
B6: IgG with feline IgG1a Fc variant S428M, T286E (antibody)
heavy: B1 heavy with T295E, Y386I, L439M
light: B1 light
notes: as for B2
B7: IgG with feline IgG1a Fc variant S428M, L309V (antibody)
heavy: B1 heavy with L318V, Y386I, L439M
light: B1 light
notes: as for B2
B8: IgG with feline IgG1a Fc variant S428M, I377Y (antibody)
heavy: B1 heavy with L439M
light: B1 light
notes: Printed '1377Y' read as I377Y; IgG1a constant domain with MALA mutations (M234A, L244A as printed); variable domains from WO 2023/97275; also called S428M, 1377Y
B9: IgG with feline IgG1a Fc variant S428M, L309D (antibody)
heavy: B1 heavy with L318D, Y386I, L439M
light: B1 light
notes: as for B2
B10: IgG with feline IgG1a Fc variant S428M, R301L (antibody)
heavy: B1 heavy with R310L, Y386I, L439M
light: B1 light
notes: as for B2
B11: IgG with feline IgG1a Fc variant S428M, R301V (antibody)
heavy: B1 heavy with R310V, Y386I, L439M
light: B1 light
notes: as for B2
B12: IgG with feline IgG1a Fc variant S428M, L309E (antibody)
heavy: B1 heavy with L318E, Y386I, L439M
light: B1 light
notes: as for B2
B13: IgG with feline IgG1a Fc variant S428M, R301Y (antibody)
heavy: B1 heavy with R310Y, Y386I, L439M
light: B1 light
notes: as for B2
B14: IgG with feline IgG1a Fc variant S428M, T286D (antibody)
heavy: B1 heavy with T295D, Y386I, L439M
light: B1 light
notes: as for B2
B15: IgG with feline IgG1a Fc variant S428L, R392E (antibody)
heavy: B1 heavy with Y386I, R403E
light: B1 light
notes: as for B2
B16: IgG with feline IgG1a Fc variant S428M, R392D (antibody)
heavy: B1 heavy with Y386I, R403D, L439M
light: B1 light
notes: as for B2
B17: IgG with feline IgG1a Fc variant S428L, L309D (antibody)
heavy: B1 heavy with L318D, Y386I
light: B1 light
notes: as for B2
B18: IgG with feline IgG1a Fc variant S428M, I377L (antibody)
heavy: B1 heavy with Y386L, L439M
light: B1 light
notes: Printed '1377L' read as I377L; IgG1a constant domain with MALA mutations (M234A, L244A as printed); variable domains from WO 2023/97275; also called S428M, 1377L
B19: IgG with feline IgG1a Fc variant S428M, R392E (antibody)
heavy: B1 heavy with Y386I, R403E, L439M
light: B1 light
notes: as for B2
B20: IgG with feline IgG1a Fc variant S428M (antibody)
heavy: B1 heavy with Y386I, L439M
light: B1 light
notes: as for B2
B21: IgG with feline IgG1a Fc variant S428L, R301Y (antibody)
heavy: B1 heavy with R310Y, Y386I
light: B1 light
notes: as for B2
B22: IgG with feline IgG1a Fc variant S428L, R392D (antibody)
heavy: B1 heavy with Y386I, R403D
light: B1 light
notes: as for B2

Changes are numbered by the printed parent chain. Names may count otherwise.

For this test, the target named is T1, feline FcRn (soluble portion of large subunit p51 isoform X1 with C-terminal 6xHis-tag, co-expressed with … (feline, UniProt Q5MGS7 21-118)).
T1 construct: Heterodimer made by co-expression in CHO cells, purified on HisTrap FF; also called FcRn complex
T1 sequence (chain, as listed by the source limits assumed, chain 1 of 2): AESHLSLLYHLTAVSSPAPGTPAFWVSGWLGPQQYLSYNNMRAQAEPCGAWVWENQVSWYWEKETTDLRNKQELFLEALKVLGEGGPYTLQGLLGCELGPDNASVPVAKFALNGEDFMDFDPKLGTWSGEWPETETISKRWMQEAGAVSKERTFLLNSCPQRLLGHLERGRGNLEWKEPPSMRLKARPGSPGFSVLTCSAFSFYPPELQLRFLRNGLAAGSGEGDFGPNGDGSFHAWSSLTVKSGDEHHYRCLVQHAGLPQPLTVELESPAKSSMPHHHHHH
T1 sequence (Q5MGS7 other isoform, or with tags, fused parts or gaps limits assumed, chain 2 of 2): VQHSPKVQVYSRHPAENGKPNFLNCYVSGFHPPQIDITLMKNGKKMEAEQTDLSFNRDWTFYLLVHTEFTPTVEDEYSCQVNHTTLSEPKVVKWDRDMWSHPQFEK
Kind of test: SPR, Biacore T200, IgG captured on Protein L chip, feline FcRn flowed over, pH 5.9, 1:1 fit. The protocol:
The feline FcRn binding experiments at pH 5.9 were completed on a BIACORE™ T200 instrument. A Series S Protein L Sensor chip (Cytiva, Cat. No. BR29205137) was used to capture the antibody variants via the kappa (κ) light chain. The feline variants were captured onto the protein L chip at a flow rate of 10 μL/min for 60 seconds. 1×PBX-P+(Cytiva Cat 28995084) was adjusted to pH 5.9 for the running buffer. The feline FcRn was flowed over the sensor chip at 30 μL/min for 120 seconds contact time and 600 seconds dissociation time. Regeneration of the flow cells was completed by flowing over 10 mM glycine, pH 1.7 at 30 μL/min for 30 seconds. The data were evaluated by the BIACORE™T200 Evaluation software v3.2.1 by fitting to a 1:1 kinetic interaction model.
Turning to B1, the Kd was found to be 107 nM, the koff was 0.117 s⁻¹ and the kon worked out at 1.09e+06 M⁻¹ s⁻¹.

The molecule B2 registered a Kd of 115 nM, a koff of 0.116 s⁻¹ and a kon of 1.01e+06 M⁻¹ s⁻¹.

For the molecule B3, binding was put at a Kd of 109 nM, the koff was determined as 0.0832 s⁻¹ and the kon came to 763000 M⁻¹ s⁻¹.

For the molecule B4, the affinity, expressed as Kd, was 28.4 nM; the koff stood at 0.0319 s⁻¹; the kon was 1.12e+06 M⁻¹ s⁻¹.

As to B5, the Kd was 33.4 nM, the koff is 0.0333 s⁻¹ and the kon was 1e+06 M⁻¹ s⁻¹.

Turning to B6, the Kd came out at 27.4 nM, the koff came to 0.0292 s⁻¹ and the kon came out at 1.07e+06 M⁻¹ s⁻¹.

In the case of B7, binding was characterised by a dissociation constant (Kd) of 31.3 nM, the koff is 0.0358 s⁻¹ and the kon worked out at 1.15e+06 M⁻¹ s⁻¹.

B8 displayed a Kd of 70.8 nM, a koff of 0.0636 s⁻¹ and a kon of 900000 M⁻¹ s⁻¹.

As for B9, the Kd is 177 nM, the koff was 0.104 s⁻¹ and the kon was found to be 592000 M⁻¹ s⁻¹.

As for B10, the Kd was found to be 103 nM, the koff was 0.0835 s⁻¹ and the kon is 809000 M⁻¹ s⁻¹.

Regarding B11, the Kd is 98.5 nM, the off-rate constant (koff) stood at 0.0801 s⁻¹ and the kon came out at 812000 M⁻¹ s⁻¹.

B12 came in with a Kd of 45.6 nM, a koff of 0.0413 s⁻¹ and a kon of 905000 M⁻¹ s⁻¹.

With B13, binding was characterised by a dissociation constant (Kd) of 98.7 nM, the koff was determined as 0.082 s⁻¹ and the kon turned out to be 830000 M⁻¹ s⁻¹.

In turn, B14 came in with a Kd of 34.9 nM, a koff of 0.0372 s⁻¹ and a kon of 1.07e+06 M⁻¹ s⁻¹.

B15 came in with a Kd of 96.5 nM, a koff of 0.0772 s⁻¹ and a kon of 801000 M⁻¹ s⁻¹.

Take B16: the Kd worked out at 101 nM, the koff amounted to 0.0795 s⁻¹ and the kon came out at 789000 M⁻¹ s⁻¹.

Molecule B17 showed a dissociation constant Kd of 200 nM, a koff of 0.12 s⁻¹ and a kon of 597000 M⁻¹ s⁻¹.

B18 registered a Kd of 76.2 nM, a koff of 0.0751 s⁻¹ and a kon of 981000 M⁻¹ s⁻¹.

Consider B19, for which the affinity, expressed as Kd, was 97.8 nM; the koff came to 0.0766 s⁻¹; the kon was determined as 784000 M⁻¹ s⁻¹.

B20 came in with a Kd of 70.1 nM, a koff of 0.0702 s⁻¹ and a kon of 1.01e+06 M⁻¹ s⁻¹.

B21 showed a Kd of 99.1 nM, a koff of 0.0706 s⁻¹ and a kon of 712000 M⁻¹ s⁻¹.

B22 gave a Kd of 104 nM, a koff of 0.0934 s⁻¹ and a kon of 904000 M⁻¹ s⁻¹.

These data come from patent publication US20240209062A1 (INVETX, published 2024).
